Data taken from the DeepSol protein solubility set.

Assay: soluble on expression in E. coli; label from the status in PepcDB or PDB records

Sequence	soluble on expression in E. coli
MTETGGRHLLEALTLCEVILSRYKRCGLQVDETETKAFQAVSERFHEITHATQGDNAAFVKSQKIIKMAPAIPTIGAVFQTPLESVTKLMEKCIDLCLPIKEVFIMLNEQISAVLRTKNTRTYYLDSGDDLLKDPVNGIAALVDERTPLGKTLFCTRPFSIAGTLYIPLLHNETVIGCVESPSGRTDYHSQAIIDAVLRVAATVIHNTIESERLNWNKEKAEAMLTMATQLARDNLDEAVLANSIMNTAKVLTESDRCSIFLVKDDTLEAHFEDGNIVAIPIATGIAGYVAQTGQTVKISDAYSDDRFNREVDKATGYRTKTILCMPVTYEGSIVAVAQLINKLDMVTESGLRLPRTFGKRDEELFQTFSMFAGASLRNCRINEKLINEKRKSDAILDVVTLLSNTDIRDVDGIVRHVLHGAKRLLYADRSALFLVDKERNELYSRIADSVAGKEIRFPCGQGIAGVVASTGIGENILDAYQDPRFNREVDKQLGYRTQTLLCEPIVLNGEILAVVQLVNKLNEAGEVTVFTESDRETFRVFSLFAGISINNSHLLEFAVKAGREMMELNENRALAGGRTGSLRNIKRPLAITETERQAVRDINLAHLDITSIDFDLFYLRENMDLPLDAAAAVAYRLIVGTGLPQKFRCRDDTLLNFILQCRKKYRNVPYHNFYHVVDVCQTIYTFLYKGAVCEKLTELDCFVLLVTALVHDLDHMGLNNSFYLKTDSPLGILSSASGNASVLEVHHCNLAVEILSDPDSDVFEGLDATDRTLAYRSMIDCVLATDMAKHNELLSLFLVAMEKPYRIGDVASRQMMMDVIVKAGDVSNVTKPFDISRLWAMAVTEEFYRQGDMEKEKGVEVLPMFDRSKNTELAKGQIGFIDFVAGPFFKKIVSASLTGMQWTVERVESNRLEWQRTLDLKAAGDGNK	not soluble
MNDHTAAIAAHFDQLAPNLDRWRRRNRTYYRDLEKLHRFWIPTGSRVLQVGSGLGDLLATVEPSFGIGIDVSPQAVAIAQQRHPQLQFHCLAAEELTPEAIGNPEPFDAIILTGVLSYLTDIQVVLEQLQAFCHPRTRLILGFHNFLWQPLLTAAEKVGQRSPQPPESWLGMQDVLNLLTLTGYEPIKQGLEHHHHHH	soluble
MSQYSNMYKFEIDIQGNLEEVYGRIFSVLKQAGYIILSYVDVAEILQRTMQKKIDPLYILNICKPAAANEFISESYETSMFIPCKLVLHQMGENTRVSLQLISPQIETFTDLSTDVAKKYENEIVDILKKM	not soluble
MSLEQDKYLTVAAITKYIEKKFEVDPYMKQVFVRGEISNLKQPASGHLYFTVKDEFAMLRSVMFHKAVQKIGFVPEDGMNVLVTGRIGVFTKAGRYQFYAEHMEPDGVGALYIQLEQLKAQLEKEGLFAETHKKVLPSFPSKVAVVTSKTGAAVRDILTTIHRRMPSVEVIVYPTIVQGEKAAQKIVENIGKINQRNDIDVMIIGRGGGSLEELWAFNEEPVVRAVYDSDVPVISAVGHETDFALSDFSADVRAATPTAAAELAVPDYRDLEERLAERKYRLLAVTRQALERKERSLEQLKQHLILNGPKHQLEQQMERTDYFSERLNNAFSKQIFVKQTAFDRLNDRLHYYHPNKEIELQKEQMTLHLQALDKAMKQLLKDKQQSFFRQVDALEHLSPLSLLKRGFGVTYKENTLVKSVQELEVGDNIQVKMQGGHIDALITAKEEDISGNEGHHHHHH	soluble
MLHCLDEFGNLKLKAIIDWQGVSTLPPGLDLSRLLMGCLSAHERRERGLEMLKLYHETFNQVLGKELFSFQELQDSYNLYYPMMAMALLPLVSSLAENSQVSEVEKAQIRFKTETKLVAMMEDLIEVHEYNLKHFPEILKG	not soluble
SAPAAALKKAAEAAEPATVTEDATDLQNEVDQELLKDMYGKEHVNIVFIGHVDAGKSTLGGNILFLTGMVDKRTMEKIEREAKEAGKESWYLSWALDSTSEEREKGKTVEVGRAYFETEHRRFSLLDAPGHKGYVTNMINGASQADIGVLVISARRGEFEAGFERGGQTREHAVLARTQGINHLVVVINKMDEPSVQWSEERYKECVDKLSMFLRRVAGYNSKTDVKYMPVSAYTGQNVKDRVDSSVCPWYQGPSLLEYLDSMTHLERKVNAPFIMPIASKYKDLGTILEGKIEAGSIKKNSNVLVMPINQTLEVTAIYDEADEEISSSICGDQVRLRVRGDDSDVQTGYVLTSTKNPVHATTRFIAQIAILELPSILTTGYSCVMHIHTAVEEVSFAKLLHKLDKTNRKSKKPPMFATKGMKIIAELETQTPVCMERFEDYQYMGRFTLRDQGTTVAVGKVVKILD	soluble
MTLDYHQPTTTNTTLPDDIHMKDPEEEEFEEYEDELLEEEEEFDEELEELENSDSASSLVSAGSPHGSSSSNGSHGSSPPLQVQSPSQGSGSSGSPTGQPEKRHICTVCGKGFSYFSILESHKRSHTGEKPYNCHFCQKTFAQKATLQVHERTHTGERPYKCRYCEKTFAQYGTKTVHEKSAHLGIRNYKCPKCDKLLSSPSALYTHKKTHGDKTFRCDFCPKTFALKNYLKLHVKQVHEQNERKHVCVYCNKGFAYAGSLQVHVRTHTGERPYVCKFCPKAFASQGNLQSHERTHTGERPYSCQFCQRTFIQKSQLTAHESTHLTQKHSVNPDSTTADILPVAGSVTDHQMVGNYECTFCNKKYPYASSLYIHMRKHTEKSAYSCDGCGKPYSQKISLNIHQDQCEAFKNRLKTTDSQFSHNCDGCGKSFVQRIALQIHVDSCEPHKNLARLKLSQQQNQNQNSDSESDTEMKICPLPNPPLTLAPTHQQIPPPVNIYAQQPPPNPLGSILGNTSLTPQTLNFGLPSLSSASFSSLNAHAPFTPVELPNSADFGPLTASKPHAVPFHPSEMCLSAFRKVPESSSISGLGSLSTSILSTQLLLQLQHTPDFNYLLNQNLLSSLAGLSGLSATLGPQLQATTPTSANQQPFLMAAPSAVQPLV	not soluble
MRPLKISRDELLQRCAGTFRRYGYHGTTMEMLSSACGLTKASFYHHYPNKEALLRDVLEWTHQRLAETLFSIAYDPLLTPRERLEKLGRKAARLFQDDSIGCLMGVVAVDASYGRSELMAPIRSFLDDWAQAFAQLYRPAFDEAQALERGRQLVADFEGAILLARIYGEPGYIDGVTRRALEQLAG	not soluble
MAHHHHHHMKLNIAYPRNGTVKQFEISDEVLRRVQLQDYRLGNEVDGAIFGSEFKGYIFRLRGGSDKDGFPMVPGVLASSRVSLLVKRGAIGFNTFRGYQGERRRKNVRGCVLASDIALVNVTISKVGDQPIEGVTDTTAPRRLGP	not soluble
MIHLVDYALLKPYLTVDEAVAGARKAEELGVAAYCVNPIYAPVVRPLLRKVKLCVVADFPFGALPTASRIALVSRLAEVADEIDVVAPIGLVKSRRWAEVRRDLISVVGAAGGRVVKVITEEPYLRDEERYTLYDIIAEAGAHFIKSSTGFAEEAYAARQGNPVHSTPERAAAIARYIKEKGYRLGVKMAGGIRTREQAKAIVDAIGWGEDPARVRLGTSTPEALL	soluble
GSSQISDMTRDGLANKALAVARTLADSPEIRQGLQKKPQESGIQAIAEAVRKRNDLLFIVVTDMQSLRYSHPEAQRIGQPFKGDDILKALNGEENVAINRGFLAQALRVFTPIYDENHKQIGVVAIGLELSRVTQQINDSRW	soluble
MDVKNAFVETAMGVLSEFGFSSVFAEKNETGGLVEAEYVNVVMGVNGAISGNLIMTAKKESALAIASAMLGGMEFTEVDDMVKSAIGELLNIIAGNAFSKVDVKAAVYISTPTLLIGEGISVLLQSPGTNKLVFDMDGQSMDVFLDIE	not soluble
MKPKHLLCLSTVVAGLALFSTMTHSVLADDASNPDTILMNNNQANLQRDALVQKLDEGHQQLEAIKHEAKGTDIEATVNKAIDAVDHMKSSIRFNTETIYDFSSIGARVEALSDAIKAIVFSTTQLTHKVEKAHTDTGFAITKLVIRIIDPFASVDAIKAQVQEIKALEEKVINYPDLQPTDRATIYTKAKLNKAIWNTRLERDKKVLGIKSFDVYNRLNKAITHAVGVQLNPTTTVQQVDDEVIAVQNALETALKSLEHHHHHH	soluble
MGSDKIHHHHHHMEFSPPLQRATLIQRYKRFLADVITPDGRELTLHCPNTGAMTGCATPGDTVWYSTSDNTKRKYPHTWELTQSQSGAFICVNTLWANRLTKEAILNESISELSGYSSLKSEVKYGSERSRIDFMLQADSRPDCYIEVKSVTLAENEQGYFPDAVTERGQKHLRELMSVAAEGQRAVIFFAVLHSAITRFSPARHIDEKYAQLLSEAQQRGVEILAYKAEISAEGMALKKSLPVTL	not soluble
MTKEVLIHQIIDVLARAGFALSDRCNIRPRSFDVAARKDDTLLLCKVLFNIDGLNEETAREMKYLAEYLGGSAIVVGAKTRDQMLEDSVVYMRYDILALSVQTLYDYFVENIRPLVSAAPGGLYVSIEGDLLKKARTTQSMSLGTLASMVGVSRRTISKYEEEGMDASIDVVLHLEDIFGVELAKPIDILKSCGSRKPRKKAEPEKEEPKGKPGTLLPEDLILNTISMLGYDVLPTAQAPFKAISRDKSSVILTGVSEFNTTVIKRAHLMSSISCITETQSVFIINGRSKLKSVENTVLIEKKELDTISDSQELLDFIEERKDTHEA	not soluble
MGSDKIHHHHHHMQVRIERAERIESELEEHVGDQTFVEESRFLEEDEQREGEILDQIIFVDGKRRSFVRITTDEGITGIFAELCVGAVIWDREGGTKTLFSPDKPPVKERVLGFSQSFQEEGYEEVGGILFKVVKEGKDAMQSIDLYMRSLEIEEVRKHMDKNILIVKDGPAARELPFEENVGPIGLVKNIGVTELSKEDFKKLRFLKKGKRSKMFVSSRETPLKKVGAYVKLIDGEGIRGLVRLETYVKDDNQIPYIRKVFDDLAKTLPHLTADLPIPRLPENILPIQFLEENLSYYLTDKNYMNTRLFAYIGR	soluble
MSLKVTFEQLKAAFNRVLISRGVDSETADACAEMFARTTESGVYSHGVNRFPRFIQQLENGDIIPDAQPKRITSLGAIEQWDAQRSIGNLTAKKMMDRAIELAADHGIGLVALRNANHWMRGGSYGWQAAEKGYIGICWTNSIAVMPPWGAKECRIGTNPLIVAIPSTPITMVDMSMSMFSYGMLEVNRLAGRQLPVDGGFDDEGNLTKEPGVIEKNRRILPMGYWKGSGMSIVLDMIATLLSDGASVAEVTQDNSDEYGISQIFIAIEVDKLIDGPTRDAKLQRIMDYVTSAERADENQAIRLPGHEFTTLLAENRRNGITVDDSVWAKIQALEGHHHHHH	soluble
MAVPQLYYFTIRGFGEYIRLLFLDNGIKFEDIRFDYEGNEWQEFKKGMLLGQLPCLKVDGQEIVQTGAIMRHLGRVHGLNGSNEQEATFLDMFFEGVRDVRMKYVRYIYYDEGTREDCVNKTIPEALVKLEELFKAHSGDFIIGNKISYADYILFEELDVYHVLDANILDKFPTLKSFWERMWKRPNLNAYLEKRKADKVWINAIEKGMN	soluble
MKQVCVLGNGQLGRMLRQAGEPLGIAVWPVGLDAEPAAVPFQQSVITAEIERWPETALTRQLARHPAFVNRDVFPIIADRLTQKQLFDKLHLPTAPWQLLAERSEWPAVFDRLGELAIVKRRTGGYDGRGQWRLRANETEQLPAECYGECIVEQGINFSGEVSLVGARGFDGSTVFYPLTHNLHQDGILRTSVAFPQANAQQQARAEEMLSAIMQELGYVGVMAMECFVTPQGLLINELAPRVHNSGHWTQNGASISQFELHLRAITDLPLPQPVVNNPSVMINLIGSDVNYDWLKLPLVHLHWYDKEVRPGRKVGHLNLTDSDTSRLTATLEALIPLLPPEYASGVIWAQSKFG	soluble
